Earlier results in article PMC8353491.

Target: Ubc9 (Homo sapiens) (UniProt P63279)
Chain of UniProt P63279 (P63279 2-158): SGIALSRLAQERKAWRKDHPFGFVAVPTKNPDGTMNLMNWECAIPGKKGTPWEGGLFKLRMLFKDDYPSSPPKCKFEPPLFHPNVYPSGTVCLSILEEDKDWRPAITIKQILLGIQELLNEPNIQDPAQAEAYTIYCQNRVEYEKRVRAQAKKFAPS

Kd: 82 nM
Substance: SUMO1 (from UniProt P63165)
